The text below walks through data of paper PMC11464680, “ABIOTIC STRESS GENE 1 mediates aroma volatiles accumulation by activating MdLOX1a in apple”.

For this data set, the target named is T1, MdASG1-GST (Malus domestica (apple; library from …, UniProt A0A498KLW2 21-457).
T1 sequence: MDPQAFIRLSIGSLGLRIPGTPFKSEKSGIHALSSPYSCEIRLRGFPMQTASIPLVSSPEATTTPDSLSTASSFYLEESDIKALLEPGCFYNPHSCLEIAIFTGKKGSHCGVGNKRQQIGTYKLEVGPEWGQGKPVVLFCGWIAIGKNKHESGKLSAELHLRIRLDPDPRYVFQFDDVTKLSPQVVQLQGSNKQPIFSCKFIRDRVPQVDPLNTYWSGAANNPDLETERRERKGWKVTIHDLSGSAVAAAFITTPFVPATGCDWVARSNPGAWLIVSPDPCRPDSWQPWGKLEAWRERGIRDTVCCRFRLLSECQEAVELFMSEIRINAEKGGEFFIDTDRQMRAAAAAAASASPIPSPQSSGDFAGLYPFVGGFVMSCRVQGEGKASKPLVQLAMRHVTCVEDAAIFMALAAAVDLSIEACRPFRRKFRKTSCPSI
Briefly: EMSA; LightShift Chemiluminescent EMSA kit binding buffer (composition, salt and pH not stated), 24 °C, 15 min. To be noted: protein: recombinant; tags: GST (pGEX-4T, N-terminal); label: biotin; blunt.

B1: p4MdLOX1a-2-M6 (dsDNA)
DNA 1: AATTACGCAGGGATTACATCTATGTCATCTTAAAGCCAGCTAACTTTCGGGATAA
DNA 2: TTATCCCGAAAGTTAGCTGGCTTTAAGATGACATAGATGTAATCCCTGCGTAATT
For the molecule B1, the binding result was “no binding”.

B2: Mutant-M1 (dsDNA)
DNA 1: GATTACATCTATGTCATCTTAAAGCCAGCTAACTTTCGGGATAAATTACCTTATAC
DNA 2: GTATAAGGTAATTTATCCCGAAAGTTAGCTGGCTTTAAGATGACATAGATGTAATC
As for B2, the binding result is “no binding”.

B3: p4MdLOX1a-2 (dsDNA)
DNA 1: AATTACGCAGGGATTACATCTATGTCATCTTAAAGCCAGCTAACTTTCGGGATAAACGATTTTGTAC
DNA 2: GTACAAAATCGTTTATCCCGAAAGTTAGCTGGCTTTAAGATGACATAGATGTAATCCCTGCGTAATT
On to B3, for which the binding result is listed as “binds”.
